Reference: patent publication US20050158769

Assays:
[1] = tested on: T1, MseI restriction endonuclease (R.MseI) (Micrococcus sp. NEB#446); assay: cleavage_in_vitro; details: NEBuffer 2 (50 mM NaCl, 10 mM MgCl2, 10 mM Tris-HCl, 1 mM DTT, pH 7.9) + BSA, 37 C; 1 unit digests 1 ug lambda DNA in 1 h
T1 sequence: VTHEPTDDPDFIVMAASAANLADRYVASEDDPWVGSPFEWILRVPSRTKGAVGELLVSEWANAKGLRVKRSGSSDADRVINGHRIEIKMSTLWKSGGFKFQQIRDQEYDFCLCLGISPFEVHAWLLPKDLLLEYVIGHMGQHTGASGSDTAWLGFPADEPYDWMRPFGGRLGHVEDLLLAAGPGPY

[2] = tested on: T2, MseI restriction endonuclease (native) (Micrococcus sp. NEB#446); assay: cleavage_in_vitro; details: native enzyme; substrate inferred from the unit assay
T2 sequence: T1 sequence

lambda DNA
activity (units total purified) [1]: 2.6e+07 | activity (units total purified (approx.)) [2]: 10000
